Test results as given in paper PMC5897841, “Development of a multipurpose scaffold for the display of peptide loops” (Protein Engineering, Design and Selection, 2017).

Legend:
[1] = molecular target: double His-tagged RAD-TPX2_((7–43)) D11A (Pyrococcus furiosus | human) (UniProt O74036); experiment: BLI; Octet RED96, Anti-Penta-HIS biosensors loaded with double His-tagged RAD-TPX2 proteins (1 μM), untagged Aurora A wild type 0-500 or 5000 nM as analyte; 50 mM HEPES pH 7.4, 500 mM NaCl, 100 mM Mg(CH3COO)2, 0.5 mM ATP, 0.5 mM TCEP, 0.05% P20; 1:1 model
[2] = molecular target: double His-tagged RAD-TPX2_((7–43)), wild-type TPX2 sequence (Pyrococcus furiosus | human) (UniProt O74036); experiment: as above
[3] = molecular target: double His-tagged RAD-TPX2_((7–43)) F16A (Pyrococcus furiosus | human) (UniProt O74036); experiment: as above
[4] = molecular target: double His-tagged RAD-TPX2_((7–43)) F35A (Pyrococcus furiosus | human) (UniProt O74036); experiment: as above
[5] = molecular target: double His-tagged RAD-TPX2_((7–43)) Y10A (Pyrococcus furiosus | human) (UniProt O74036); experiment: as above
[6] = molecular target: double His-tagged RAD-TPX2_((7–43)) W34A (Pyrococcus furiosus | human) (UniProt O74036); experiment: as above
[7] = molecular target: double His-tagged RAD-TPX2_((7–43)) F19A (Pyrococcus furiosus | human) (UniProt O74036); experiment: as above
[8] = molecular target: double His-tagged RAD-TPX2_((7–43)) Y8A (Pyrococcus furiosus | human) (UniProt O74036); experiment: as above
[9] = molecular target: Fluorescein-CK2β_((186–200)) peptide (human) (UniProt P67870); experiment: fluorescence polarisation; fluorescence anisotropy, direct titration of kinase (CK2α 2 nM-2 μM; Aurora A D274N 2 nM-1.5 μM) into labelled peptide or display protein; 10 mM HEPES pH 7.4, 500 mM NaCl, 1 mM DTT, 0.05% P20; room temperature; 1:1 model
[10] = molecular target: Alexa Fluor 488-labeled cRAD-CK2β_((186–200)) (Pyrococcus furiosus | human) (UniProt O74036); experiment: as above
[11] = molecular target: synthetic linear CK2β_((186–200)) peptide with C-terminal Gly-Cys (human) (UniProt P67870); experiment: SPR; Biacore T100, CM5, peptides or cRAD display proteins immobilised through their cysteine (240-400 RU), kinase as analyte 2.5 nM-2.5 μM, 25°C, 10 mM HEPES pH 7.4, 500 mM NaCl, 0.05% P20; 1:1 steady-state affinity model; CK2α data analysed at 200 s post-injection
CK2α kinase (human) [12] = molecular target: CK2α kinase (human) (UniProt P68400); experiment: AUC; sedimentation velocity, absorbance at 280 nm, 50 000 rpm, 20°C, 20 mM HEPES pH 7.5, 500 mM NaCl; single proteins and mixtures (5 μM each CK2α and RAD-CK2β; 10 μM each Aurora A D274N and RAD-TPX2)
CK2α kinase (human), sequence (P68400 2-329): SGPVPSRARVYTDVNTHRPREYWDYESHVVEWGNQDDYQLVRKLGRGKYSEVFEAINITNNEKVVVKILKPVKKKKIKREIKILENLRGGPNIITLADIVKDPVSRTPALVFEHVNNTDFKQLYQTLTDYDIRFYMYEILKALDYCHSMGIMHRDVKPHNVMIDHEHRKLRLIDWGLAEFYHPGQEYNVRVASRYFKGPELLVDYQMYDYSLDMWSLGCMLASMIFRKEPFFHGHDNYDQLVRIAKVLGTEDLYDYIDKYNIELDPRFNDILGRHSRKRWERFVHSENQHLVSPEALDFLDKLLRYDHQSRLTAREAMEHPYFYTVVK

CK2α kinase (human) [13] = molecular target: CK2α kinase (human) (UniProt P68400); experiment: SEC; analytical Superdex 75 5/150, 20 mM HEPES pH 7.5, 500 mM NaCl; single proteins and equimolar mixture; fractions checked by SDS-PAGE
CK2α kinase (human) [14] = molecular target: CK2α kinase (human) (UniProt P68400); experiment: ITC; itc200, 25°C, 10 mM HEPES pH 7.4, 500 mM NaCl, 0.05% P20; 50 μM titrant into 5 μM Aurora A D274N, 100 μM CK2β peptide or RAD-CK2β into 10 μM CK2α; single-site model
[15] = molecular target: Aurora A_(D274N) kinase domain (human) (UniProt O14965); experiment: as above
Aurora A_(D274N) kinase domain (human), sequence (O14965 122-403 D274N): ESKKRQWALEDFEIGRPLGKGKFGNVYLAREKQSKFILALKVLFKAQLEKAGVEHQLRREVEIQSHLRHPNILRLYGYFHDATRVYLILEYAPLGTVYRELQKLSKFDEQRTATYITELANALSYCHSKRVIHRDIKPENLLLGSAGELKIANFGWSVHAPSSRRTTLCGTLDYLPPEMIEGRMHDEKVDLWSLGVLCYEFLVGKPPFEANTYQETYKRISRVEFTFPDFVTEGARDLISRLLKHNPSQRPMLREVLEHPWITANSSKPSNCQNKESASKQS

[16] = molecular target: Aurora A wild-type kinase domain (untagged) (human); experiment: fluorescence polarisation; fluorescence anisotropy competition: 10 nM Alexa Fluor 488-TPX2 peptide and 50 nM Aurora A wild type, RAD-TPX2 variants as competitors 195 nM-25 μM, 25°C, HEPES pH 7.4, 0.1 M Mg(CH3COO)2, 100 mM NaCl, 1 mM ATP, 1 mM DTT, 0.01% P20; Ki from the equation of Wang (1995), given as KD in Table II
Aurora A wild-type kinase domain (untagged) (human), sequence (O14965 133-383): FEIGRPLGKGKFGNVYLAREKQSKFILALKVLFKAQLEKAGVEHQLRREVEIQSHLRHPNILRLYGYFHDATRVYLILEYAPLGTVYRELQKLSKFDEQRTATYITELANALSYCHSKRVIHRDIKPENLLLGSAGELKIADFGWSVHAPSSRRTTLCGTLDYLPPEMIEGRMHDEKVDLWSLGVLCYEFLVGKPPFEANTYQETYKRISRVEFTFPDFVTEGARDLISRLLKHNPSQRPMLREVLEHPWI

CK2α kinase, sequence (P68400 2-329): as the sequence (P68400 2-329) above

In the case of “Aurora A wild-type kinase domain (untagged) (domain or fragment)”, the Kd [1] is reported as 1100 nM, the Kd [2] is reported as 46 nM and the Kd [3] is reported as 820 nM. It also gave a Kd [4] of 1100 nM, a Kd [5] of 11000 nM and a Kd [6] of 840 nM. It also gave a Kd [7] of 870 nM and a Kd [8] of 2800 nM.

For “CK2α kinase (from UniProt P68400 2-329) (enzyme)”, the Kd [9] was 348 nM, the Kd [10] was 139 nM and the Kd [11] was 407 nM.

Substance “RAD-CK2β_((186–200)) display protein (as used in AUC and SEC) (from UniProt O74036 108-287; P67870 186-200; O74036 302-349)” has a stoichiometry N (CK2α kinase (human) [12]) of 1 and a stoichiometry N (CK2α kinase (human) [13]) of 1.

In the case of “cRAD-CK2β_((186–200)) display protein (from UniProt O74036 108-287; P67870 186-200; O74036 302-349)”, the Kd (CK2α kinase (human) [14]) is reported as 140 nM.

For “cRAD-TPX2_((7–43)) display protein (from UniProt O74036 108-287; O74036 302-349)”, the Kd [15] was 147 nM.

For “double His-tagged RAD-TPX2_((7–43)) D11A (from UniProt O74036 108-287; Q9ULW0 7-43; O74036 302-349)”, the Kd [16] was greater than 3200 nM.

“double His-tagged RAD-TPX2_((7–43)) F16A (from UniProt O74036 108-287; Q9ULW0 7-43; O74036 302-349)” gave a Kd [16] of 300 nM.

Substance “double His-tagged RAD-TPX2_((7–43)) F19A (from UniProt O74036 108-287; Q9ULW0 7-43; O74036 302-349)” has a Kd [16] of 1770 nM.

Substance “double His-tagged RAD-TPX2_((7–43)) F35A (from UniProt O74036 108-287; Q9ULW0 7-43; O74036 302-349)” has a Kd [16] of 1110 nM.

Substance “double His-tagged RAD-TPX2_((7–43)) W34A (from UniProt O74036 108-287; Q9ULW0 7-43; O74036 302-349)” has a Kd [16] of 1170 nM.

With “double His-tagged RAD-TPX2_((7–43)) Y8A (from UniProt O74036 108-287; Q9ULW0 7-43; O74036 302-349)” the Kd [16] was greater than 3200 nM.

“double His-tagged RAD-TPX2_((7–43)) Y10A (from UniProt O74036 108-287; Q9ULW0 7-43; O74036 302-349)” showed a Kd [16] greater than 3200 nM.

In the case of “double His-tagged RAD-TPX2_((7–43)), wild-type TPX2 sequence (from UniProt O74036 108-287; O74036 302-349)”, the Kd [16] is reported as 2 nM.

Substance “synthetic linear CK2β_((186–200)) peptide (from UniProt P67870 186-200)” has a Kd (CK2α kinase (human) [14]) of 138 nM.
